Measured values taken from doi:10.1101/705459 (bioRxiv, 2019).

T1: CMG2-GST-biotin (human CMG2 vWA domain 40-217, [change], [change], GST fusion, biotin-labelled) (human, UniProt P58335 40-217)
T1 chain: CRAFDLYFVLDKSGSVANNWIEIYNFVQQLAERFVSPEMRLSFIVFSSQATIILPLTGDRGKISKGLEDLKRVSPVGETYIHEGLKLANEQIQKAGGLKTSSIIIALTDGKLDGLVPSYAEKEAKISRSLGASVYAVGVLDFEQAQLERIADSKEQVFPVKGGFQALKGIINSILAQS

T2: CMG2-488 (human CMG2 vWA domain 40-217, [change], [change], AlexaFluor 488) (human, UniProt P58335 40-217)
T2 chain: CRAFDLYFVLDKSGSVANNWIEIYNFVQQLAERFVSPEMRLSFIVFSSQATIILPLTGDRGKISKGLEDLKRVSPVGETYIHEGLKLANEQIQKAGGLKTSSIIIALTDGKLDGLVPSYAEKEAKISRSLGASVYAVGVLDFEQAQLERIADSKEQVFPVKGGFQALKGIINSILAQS

B1: Peptide U12 (canstatin-derived 15-mer) (peptide)
peptide: VSIGYLLVKHSQTDQ
B2: Peptide S16 (canstatin-derived 15-mer) (peptide)
peptide: PAIAIAVHSQDVSIP

Assays:
[1] = biological target: T1, CMG2-GST-biotin (human CMG2 vWA domain …); assay: BLI
[2] = biological target: T2, CMG2-488 (human CMG2 vWA domain 40-217, …); assay: FRET or BRET
[3] = biological target: B2; assay: peptide or protein array
[4] = biological target: B1; assay: peptide or protein array

Row | Binder | Kd [1] [nM] | IC50 [2] [nM] | koff [1] [s⁻¹] | kon [1] [M⁻¹ s⁻¹] | Kd [2] [nM] | binding result [3] | binding result [4]
1 | B1 | 80000 | 35000 |  |  |  |  | 
2 | B2 | 400 | 2700 | ~0.0001 | ~200 | 100 ± 55 |  | 
3 | CMG2-biotin (human CMG2 vWA domain 40-217, [change], [change], biotin-labelled) (domain or fragment) CRAFDLYFVLDKSGSVANNWIEIYNFVQQLAERFVSPEMRLSFIVFSSQATIILPLTGDRGKISKGLEDLKRVSPVGETYIHEGLKLANEQIQKAGGLKTSSIIIALTDGKLDGLVPSYAEKEAKISRSLGASVYAVGVLDFEQAQLERIADSKEQVFPVKGGFQALKGIINSILAQS |  |  |  |  |  | binds | binds
